Patent US20010046665A1, “Method of identifying the function of a test agent” (priority 2000, published 2001)

Assays:
Format in all cases: cell-based
Set-up in all cases: key: *: up in IL-1α treatment; **: up in OPG treatment, down in thrombopoietin treatment; ***: up in IFNγ treatment; ****: up in IL-6 treatment
TF-1, Erythroleukemia = assay: GeneCalling confirmation of gene expression changes in TF-1 cells; conditions: confirmed by GeneCalling
MG-63, Osteosarcoma = assay: GeneCalling confirmation of gene expression changes in MG-63 cells; conditions: confirmed by GeneCalling; for Collagen gene expression change: up with OPG, down with thrombopoietin
U-87MG, Astrocytoma = assay: GeneCalling confirmation of gene expression changes in U-87MG cells; conditions: confirmed by GeneCalling

IL-6: known protein used to treat the indicated cell lines in GeneCalling confirmation
ICAM-1 gene expression change (TF-1, Erythroleukemia): ICAM-1****

thrombopoietin: known protein used to treat the indicated cell lines in GeneCalling confirmation
Collagen gene expression change (MG-63, Osteosarcoma): Collagen**

B1: OPG: known protein used to treat the indicated cell lines in GeneCalling confirmation (protein, UniProt O00300 22-401, looked up)
Tumor necrosis factor …: ETFPPKYLHYDEETSHQLLCDKCPPGTYLKQHCTAKWKTVCAPCPDHYYTDSWHTSDECLYCSPVCKELQYVKQECNRTHNRVCECKEGRYLEIEFCLKHRSCPPGFGVVQAGTPERNTVCKRCPDGFFSNETSSKAPCRKHTNCSVFGLLLTQKGNATHDNICSGNSESTQKCGIDVTLCEEAFFRFAVPTKFTPNWLSVLVDNLPGTKVNAESVERIKRQHSSQEQTFQLLKLWKHQNKDQDIVKKIIQDIDLCENSVQRHIGHANLTFEQLRSLMESLPGKKVGAEDIEKTIKACKPSDQILKLLSLWRIKNGDQDTLKGLMHALKHSKTYHFPKTVTQSLKKTIRFLHSFTMYKLYQKLFLEMIGNQVQSVKISCL
Collagen gene expression change (MG-63, Osteosarcoma): Collagen**

B2: IL-1α: known protein used to treat the indicated cell lines in GeneCalling confirmation (protein, UniProt P01583 113-271, looked up)
Interleukin-1 alpha: SAPFSFLSNVKYNFMRIIKYEFILNDALNQSIIRANDQYLTAAALHNLDEAVKFDMGAYKSSKDDAKITVILRISKTQLYVTAQDEDQPVLLKEMPEIPKTITGSETNLLFFWETHGTKNYFTSVAHPNLFIATKQDYWVCLAGGPPSITDFQILENQA
Factor B gene expression change (MG-63, Osteosarcoma): Factor B* | IL-8 gene expression change (MG-63, Osteosarcoma): IL-8* | IRF-1 gene expression change (MG-63, Osteosarcoma): IRF-1* | LOX gene expression change (MG-63, Osteosarcoma): LOX* | MxA gene expression change (MG-63, Osteosarcoma): MxA* | TAP-1 gene expression change (MG-63, Osteosarcoma): TAP-1* | IL-8 gene expression change (U-87MG, Astrocytoma): IL-8* | MCP-1 gene expression change (U-87MG, Astrocytoma): MCP-1* | Tenascin-c gene expression change (U-87MG, Astrocytoma): Tenascin-c*

B3: IFNγ: known protein used to treat the indicated cell lines in GeneCalling confirmation (protein, UniProt P01579 24-161, looked up)
Interferon gamma: QDPYVKEAENLKKYFNAGHSDVADNGTLFLGILKNWKEESDRKIMQSQIVSFYFKLFKNFKDDQSIQKSVETIKEDMNVKFFNSNKKKRDDFEKLTNYSVTDLNVQRKAIHELIQVMAELSPAAKTGKRKRSQMLFRG
IRF-1 gene expression change (U-87MG, Astrocytoma): IRF-1*** | IRF-1 gene expression change (TF-1, Erythroleukemia): IRF-1***
